The results in this text go back to US20210188980A1 (SHANGHAI EPIMAB BIOTHERAPEUTICS, published 2021).

The chains are these.
T1: recombinant human LAG-3-his protein (Novoprotein) (human, UniProt P18627 23-450)
T1 construct: Bought; also called huLAG-3; not shown: His tag
T1 sequence (looked up): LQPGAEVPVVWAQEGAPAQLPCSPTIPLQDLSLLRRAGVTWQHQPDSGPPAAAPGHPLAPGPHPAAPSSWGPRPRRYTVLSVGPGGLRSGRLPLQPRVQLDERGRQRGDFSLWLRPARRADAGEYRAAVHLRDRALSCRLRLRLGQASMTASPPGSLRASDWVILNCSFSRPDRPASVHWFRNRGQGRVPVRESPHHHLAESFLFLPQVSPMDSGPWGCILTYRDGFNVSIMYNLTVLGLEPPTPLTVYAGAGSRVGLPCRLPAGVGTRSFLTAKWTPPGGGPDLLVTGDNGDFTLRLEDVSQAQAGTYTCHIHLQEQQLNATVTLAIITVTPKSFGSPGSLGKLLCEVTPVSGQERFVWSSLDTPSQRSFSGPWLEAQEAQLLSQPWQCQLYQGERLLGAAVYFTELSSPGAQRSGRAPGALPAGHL

B1: mAb713c (antibody, V domains shown)
VH: EVKLVESGGGLVKPGGSLELSCAASGFTSSDYGMHWVRQAPEKGLEWVAYISSGSYTIYYADTVKGRFTISRDNAKNTLFLQMTSLRSEDTAMYYCAKRGGSSHVNVMDYWGQGTSVTVSS
VL: DIQMTQSSSYLSVSLGGRVTITCKASDHINNWLAWYQQKPGNAPRLLISGATSLETGVPSRFSGSGSGKDYTLSITSLQTEDVATYYCQQYWSPPYTFGGGTKLEIK
notes: also called mAb73c
B2: HumAb713-3 (antibody, human IgG1, kappa, L234A L235A, V domains shown)
VH: EVQLVESGGGLVQPGGSLRLSCAASGFTSSDYGMHWVRQAPGKGLEWVSYISSGSYTIYYADTVKGRFTISRDNAKNSLYLQMNSLRDEDTAVYYCAKRGGSSHVNVMDYWGQGTTVTVSS
VL: DIQMTQSPSSLSASVGDRVTITCKASDHINNWLAWYQQKPGKAPKLLIYGATSLETGVPSRFSGSGSGTDFTFTISSLQPEDIATYYCQQYWSPPYTFGGGTKVEIKR
notes: humanized mAb713; also called HurnAb713-3
B3: HumAb713-1 (antibody, human IgG1, kappa, L234A L235A, V domains shown)
VH: B2 VH with S29F, K98R
VL: B2 VL
notes: humanized mAb713
B4: HumAb713-11 (antibody, human IgG1, kappa, L234A L235A, V domains shown)
VH: B2 VH
VL: B2 VL with Y49S, F71Y
notes: humanized mAb713
B5: HumAb709-10 (antibody, human IgG1, kappa, L234A L235A, V domains shown)
VH: EVQLVESGGGLVQPGGSLRLSCAASGFTFSFYTMSWVRQAPGKGLEWVATISGGGRDTYYPDSVKGRFTISRDNAKNSLYLQMNSLRAEDTAVYYCARQGGNYLFAYWGQGTLVTVSS
VL: DIVMTQSPSSLSASVGDRVTITCKASQDVNTVVAWYQQKPGKAPKVLISWASTRHTGVPSRFTGSGSGTDYTLTISSLQPEDFATYYCQQHYTTPYTFGGGTKVEIKR
notes: humanized mAb709
B6: HumAb709-8 (antibody, human IgG1, kappa, L234A L235A, V domains shown)
VH: B5 VH with R98G
VL: B5 VL with T63S
notes: humanized mAb709; also called HurnAb709-8
B7: HumAb719-11 (antibody, human IgG1, kappa, L234A L235A, V domains shown)
VH: EVQLLESGGGLVQPGGSLRLSCAASGFSFSSHLMSWVRQAPGKGLEWVAAISGGGADTYYPDSVKGRFTISRDNSKNTLYLQMNSLRAEDTAVYYCTRQILAFDSWGQGTTVTVSS
VL: DIQMNQSPSSLSASVGDRVTITCHASQNIYVWLNWYQQKPGKAPKLLIYKASNLHTGVPSRFSGSGSGTDFTFTISSLQPEDIATYYCQQGQSYPWTFGGGTKVEIKR
notes: humanized mAb719
B8: HumAb719-8 (antibody, human IgG1, kappa, L234A L235A, V domains shown)
VH: B7 VH with S28T, A49S, T97A, R98K
VL: B7 VL
notes: humanized mAb719
B9: HumAb719-21 (antibody, human IgG1, kappa, L234A L235A, V domains shown)
VH: B7 VH with G44R, D62A, S105A
VL: B7 VL with A43I
notes: humanized mAb719; also called HuniAb719-21
B10: HumAb719-12 (antibody, human IgG1, kappa, L234A L235A, V domains shown)
VH: B7 VH with G44R
VL: B7 VL
notes: humanized mAb719
B11: mAb719c (antibody, V domains shown)
VH: EVKLVESGGGLVKPGGSLKLSCTASGFSFSSHLMSWVRQTPEKRLEWVAAISGGGADTYYPDSVKGRFTISRDNAKNTLYLQMRSLRSEDTALYYCTRQILAFDSWGQGTTLTVSS
VL: DIQMNQSPSSLSVSLGDTITITCHASQNIYVWLNWYQQKPGNIPKLLIYKASNLHTGVPSRFSGGGSGTGFTLTISSLQPEDIATYYCQQGQSYPWTFGGGTKLEIK
B12: HumAb747-43 (antibody, human IgG1, V domains shown)
VH: EVQLVQSGAEVKKPGATVKISCKVSDFNIKDDYMHWVQQAPGKGLEWIGWIVPENGNTEYASKFQGRVTITADTSTDTAYLELSSLRSEDTAVYYCTVYGDYWGQGTTVTVSS
VL: DIQMTQSPSSLSASVGDRVTITCRASQEISGYLSWLQQKPGKAIKSLIYAASTLDSGVPSRFSGSRSGTDFTLTISSLQPEDFATYYCLQYASYPLTFGQGTKLEIK
notes: humanized mAb747; human IgG1/kappa constant domains
B13: HumAb747-46 (antibody, human IgG1, V domains shown)
VH: B12 VH with I20L, K23T, V24A, Q38K, V68A, D77N
VL: B12 VL
notes: as for B12
B14: HumAb747-44 (antibody, human IgG1, V domains shown)
VH: B12 VH with I20L, V24A
VL: B12 VL
notes: as for B12
B15: HumAb747-47 (antibody, human IgG1, V domains shown)
VH: B12 VH
VL: B12 VL with S46R
notes: as for B12
B16: HumAb747-45 (antibody, human IgG1, V domains shown)
VH: B12 VH with I20L, K23T, V24A
VL: B12 VL
notes: as for B12

Residue numbers refer to the chain shown, from its start.

T2 sequence (Q15116 25-167 limits assumed): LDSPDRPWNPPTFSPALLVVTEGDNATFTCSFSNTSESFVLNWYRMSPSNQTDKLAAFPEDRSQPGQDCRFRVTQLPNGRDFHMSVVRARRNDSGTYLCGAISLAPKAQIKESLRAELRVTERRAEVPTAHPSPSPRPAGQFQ

The first test has as its target T2, human PD-1-His protein (human, UniProt Q15116 25-167, limits assumed).
T2 construct: also called huPD-1; not shown: His tag
Briefly: SPR Biacore.
Take B1: the affinity, expressed as Kd, was 1.3 nM; the koff amounted to 0.000284 s⁻¹; the kon is 218000 M⁻¹ s⁻¹.

For B2, binding was characterised by a dissociation constant (Kd) of 2.46 nM, the koff was found to be 0.000208 s⁻¹ and the kon was found to be 84500 M⁻¹ s⁻¹.

B3 yielded a Kd of 11.1 nM, a koff of 0.001 s⁻¹ and a kon of 90100 M⁻¹ s⁻¹.

With B4, binding was characterised by a dissociation constant (Kd) of 2.37 nM, the koff worked out at 0.000378 s⁻¹ and the kon came out at 159000 M⁻¹ s⁻¹.

For a further test, the target named is T3, human PD-1 expressed on cells (human, UniProt Q15116 25-288).
T3 construct: whole, on cells; also called CHO-K1/huPD-1; CHO-K1-hPD-1 cells
T3 sequence (Q15116 25-288): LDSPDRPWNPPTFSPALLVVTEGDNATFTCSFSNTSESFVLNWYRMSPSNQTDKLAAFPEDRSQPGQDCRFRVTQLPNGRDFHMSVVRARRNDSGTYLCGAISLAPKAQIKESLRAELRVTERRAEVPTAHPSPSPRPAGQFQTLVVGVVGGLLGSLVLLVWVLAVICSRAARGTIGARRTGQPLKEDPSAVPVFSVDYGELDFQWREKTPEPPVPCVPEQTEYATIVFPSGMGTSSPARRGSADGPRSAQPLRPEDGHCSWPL
Briefly: cell RBA FACS; competitor PD-L1/Fc.
Molecule B1 showed an IC50 of 0.91 nM.

In the case of B2, the IC50 came to 0.77 nM.

The molecule B3 showed a 50% inhibitory concentration (IC50) of 0.5 nM.

The molecule B4 had an IC50 of 0.51 nM.

In the next test the target is T3, human PD-1 expressed on cells. Kind of test: cell RBA FACS; competitor PD-L2/Fc.
B1 showed a concentration for half-maximal inhibition (IC50) of 2.2 nM.

In turn, B2 had an IC50 of 1.24 nM.

B3 registered an IC50 of 1.2 nM.

In turn, B4 came in with an IC50 of 0.97 nM.

The target in another test is T2, human PD-1-His protein. Kind of test: SPR Biacore, Ab captured, huPD-1-His analyte. The protocol: (§1) All 15 humanized antibodies and the chimeric antibody (mAb709c) were characterized by binding ELISA and cell-based RBA. For cell-based RBA, 2×10⁵ cells/well of CHO-K1-huPD1 cells were added to a pre-blocked 96-well round-bottomed plate and after washing, 50 μl antibodies with diluted concentration ranging from 0.064 nM to 200 nM were added to each well. Next, 50 μl of 60 μg/ml biotinylated PD-L1/Fc or biotinylated PD-L2/Fc protein were added. After gentle mixing and incubation at 4° C., the cells were washed and stained by Alexa Fluor™ 488 streptavidin solution (1:1000, ThermoFisher Scientific; Cat. No. S32354). Signals were readout by FACS and curves were fitted by GraphPad software. […] The association and dissociation rate constants, k (M⁻¹ s⁻¹) and koff(s⁻¹), respectively, were determined by making kinetic binding measurements at five different concentrations of human PD-1-His protein at a continuous flow rate of 30 μl/min. The equilibrium dissociation constant KD (M) of the reaction between antibodies and related target proteins was calculated from the kinetic rate constants using the formula KD=koff/kₒₙ. HumAb709-8 had minimal back-mutation(s) while maintaining to the greatest extent the affinity of the parental variable domains on chimeric mAb709c.
For the molecule B5, the Kd came out at 2.04 nM, the koff is 0.000297 s⁻¹ and the kon was 146000 M⁻¹ s⁻¹.

On to B6, for which the Kd turned out to be 0.368 nM, the koff was 4.69e-05 s⁻¹ and the kon worked out at 127000 M⁻¹ s⁻¹.

For another test, the target named is T4, human PD-1 ECD/Fc fusion protein (human).
T4 construct: also called huPD-1/Fc; HuPD-1 ECD/Fc
T4 sequence (chain, as listed by the source limits assumed): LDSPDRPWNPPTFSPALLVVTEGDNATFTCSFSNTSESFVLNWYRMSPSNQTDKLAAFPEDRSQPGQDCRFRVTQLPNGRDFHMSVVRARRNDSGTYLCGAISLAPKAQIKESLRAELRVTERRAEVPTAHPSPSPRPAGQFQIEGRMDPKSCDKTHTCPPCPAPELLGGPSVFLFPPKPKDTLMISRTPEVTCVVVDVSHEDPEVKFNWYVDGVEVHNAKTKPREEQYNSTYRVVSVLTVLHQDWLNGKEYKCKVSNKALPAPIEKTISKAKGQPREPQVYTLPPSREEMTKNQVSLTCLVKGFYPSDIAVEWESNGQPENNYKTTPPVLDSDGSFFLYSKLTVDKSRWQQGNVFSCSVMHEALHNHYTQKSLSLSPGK
Kind of test: BLI Octet, immobilized huPD-1-Fc, Ab analyte. The source says: All 21 humanized antibodies and the chimeric antibody (mAb719c) were characterized by binding ELISA and affinity determination using Octet® RED96 biolayer interferometry system (Pall FortéBio LLG), using a biosensor having immobilized human PD-Fc as the antibody target. Rate constants were derived by making kinetic binding measurements at five different concentrations of antibody.
For B7, the affinity, expressed as Kd, was 3.82 nM; the koff turned out to be 0.000227 s⁻¹; the kon is 59400 M⁻¹ s⁻¹.

The molecule B8 came in with a Kd of 0.46 nM, a koff of 4.9e-05 s⁻¹ and a kon of 107000 M⁻¹ s⁻¹.

As for B9, the Kd is 0.601 nM, the koff was 6.26e-05 s⁻¹ and the kon was determined as 104000 M⁻¹ s⁻¹.

B10 showed a Kd of 0.844 nM, a koff of 5.81e-05 s⁻¹ and a kon of 68800 M⁻¹ s⁻¹.

Molecule B11 displayed a Kd below 0.103 nM, a koff below 1e-05 s⁻¹ and a kon of 97400 M⁻¹ s⁻¹.

The target in a further test is T1, recombinant human LAG-3-his protein …. Kind of test: BLI Octet, Ab on AHC sensor, huLAG-3-his; test group 1. As for the experimental part:
All 18 humanized antibodies (Table 34) and a chimeric antibody having the parental murine VH and VL domains (mAb747c) were ranked by dissociation rate constant (koff). Briefly, antibodies were characterized for affinities and binding kinetics by Octet®RED96 biolayer interferometry (Pall ForteBio LLC). Antibodies were captured by Anti-hIgG Fc Capture (AHC) Biosensors (Pall) at a concentration of 100 nM for 30 seconds. Sensors were then dipped into running buffer (1× pH7.2 PBS, 0.05% Tween 20, 0.1% BSA) for 60 seconds to check baseline. Binding was measured by dipping sensors into a single concentration of recombinant human LAG-3-his protein (Novoprotein). Dissociation was followed by dipping sensors into running buffer for 1200 seconds. The association and dissociation curves were fitted to a 1:1 Langmuir binding model using FortéBio Data Analysis software (Pall). In each test group, the off-rates of antibodies were able to be compared with that of mAb747c. The off-rate ratios were calculated by the off-rate of antibody to that of mAb747c of its group and were compared all together. The lower the ratio was, the higher was the affinity of the antibody.
In the case of B12, the koff was found to be 0.00925 s⁻¹ and the “off-rate ratio to that of mAb747c” value was found to be 682%.

In the case of B13, the koff is 0.0109 s⁻¹ and the “off-rate ratio to that of mAb747c” value turned out to be 801%.

In the case of B14, the koff turned out to be 0.011 s⁻¹ and the “off-rate ratio to that of mAb747c” value was 809%.

B15: the koff worked out at 0.0144 s⁻¹ and the “off-rate ratio to that of mAb747c” value worked out at 1060%.

With B16, the koff stood at 0.0108 s⁻¹ and the “off-rate ratio to that of mAb747c” value worked out at 797%.

Another test concerns the target T3, human PD-1 expressed on cells. Briefly: cell RBA FACS, CHO-K1-huPD1; competitor biotin-PD-L1/Fc. The protocol:
as §1
The molecule B5 yielded an IC50 of 0.29 nM.

B6 displayed an IC50 of 0.44 nM.

A further test has the same target. Kind of test: cell RBA FACS, CHO-K1-huPD1; competitor biotin-PD-L2/Fc. The protocol: as §1
B5: the IC50 stood at 0.8 nM.

In turn, B6 showed an IC50 of 1 nM.
